# Reference: the DeepSol protein solubility set
# Assay: soluble on expression in E. coli; label from the status in PepcDB or PDB records
row,Sequence,soluble on expression in E. coli
1,MKTRHYSLLIFLAGSAFFPEISAQLANCQNLGTPINSTDCLCPGFVDGRLCENIKCQRWAVPDKNRCACAPGWYDRYCGLRGCRPPNEEQMDLEKRSFIIVFNTKTTMKMQLDSLKNNFKEMISKVSKNSKGVVNNWIENYIVYGFVESQSHTKIQKLFTENPDDVISFFNNMTLFDGDDTQPVLTAIQNAQQTYPKMQAHALVLVFTDSPASDATAWSHRFTDKNAEQSVLQISLIWRSKYSFFLSLPARTNFLSNGVDVYRRLSLTNHGDTFFIKDSNDLSNALLNVIGVQYFPENVQIGYGKTTDEQLQTYVDNDGDLVYILLTIRSSLQTTVPSISEATIVAEGDSYRLYSPASNIGDTVTIHCQNGTTYNYRMFIQSKNTLLFNYNDDMHIDVGNGMAVIGAKSIFLGTKNSANRDHNAHDLSGNANELTTNVSKNNTDTCSKKNLDSINDPRLQEPRQFIFILEQHSGNEQVYKTLAREINDILELVNSSTTSEYKKEFTLIAHDSAESHVLFSSYNPKIFAEKFSKLVNSLELTDNLDNTMGLLSIIHAQKMNILPTALVYYFTNQAVKNAQNLTRNWDLVKRDIEINFLTIADGVTTEIFALPKQLELVQKMTNGRLIPLGKTENSIFPIFKDMMTVTTLTTDNEQYNCHDTALEIDGYFEDGASVSISNYVTYKNPNFMSIRIDSKLFASGKWKLSALSTTGGCQITVRQKTSVGLVLGFTAATNDDNASTQIISQRSSSDSQPIFTTLKTTNHIVPTDLEIQIVNRQRYDQPVSYVKLGNAQRDTNSCSYDFISDSVVVPKSTLTMWIVSATDNAGKLILHRIFYYYLPRILSEFAVVLQGFMEIFVKLCSCSPPTLLQCLQYRPLQSQHK,not soluble
2,MKTVDSELFDSGPFKKNFAFGNADHSTASPFEISTTPIEVNESRAHKTIEISNRARLESQNDGCLSPSSLKSVLDEIQTEPRCKSPQHIDLHTFRDAVDVNYQRMAITGEELSGVPLEDLKTASGHLIEALHLRSKYMERIGNQFPSTTRNFLSGHYPANLPKHRVKNTETTVQTSFNPPDPPKDHWGKNDPLPKYEKIYHLRRNRGVTEICNDDGSIDQQFKNVNVTKEEFLNDTEKLTAMIVDGPLKSFCFRRLSYLENKFQLHVLLNELRELHEQKGVSHRDFYNIRKVDTHIHAASSMNQKHLLRFIKKKIKTEADTVVLNNNGTKVTMKEVFKKMGIDAYDLSVDMLDVHADRNTFHRFDKFNTKYNPVGESTLREIFIKTDNYVGGKYFADLLKEVLSDLEDSKYQHAEPRLSIYGRSKNEWDNLAKWALTHDVWSPNARWLVQIPRLYDVYRAKNMVKNFDDMLDNLFTPLFEVTNDPSSHPELHLFLQQISGIDSVDDESKHEFVNFDRSTPCPPEYTDLENPPYNYYLFYMYRNICALNAFRRARGLNTFALRPHCGEAGHVSHLLTGYLTSESIAHGILLRKVPVLQYLYYLTQIGIAMSPLSNNSLFISYQRNPLPEYLQKGLNVSLSTDDPLQFHYTKEALMEEFSIAAQVWKLSSCDMCELARNSVMQSGFEDKVKIHWLGPNYKEEGVLGNDIHRTNVPDIRVSFRHEALVDELYNLFRVQNTLKQ,not soluble
3,MKTWPAPTAPTPVRATVTVPGSKSQTNRALVLAALAAAQGRGASTISGALRSRDTELMLDALQTLGLRVDGVGSELTVSGRIEPGPGARVDCGLAGTVLRFVPPLAALGSVPVTFDGDQQARGRPIAPLLDALRELGVAVDGTGLPFRVRGNGSLAGGTVAIDASASSQFVSGLLLSAASFTDGLTVQHTGSSLPSAPHIAMTAAMLRQAGVDIDDSTPNRWQVRPGPVAARRWDIEPDLTNAVAFLSAAVVSGGTVRITGWPRVSVQPADHILAILRQLNAVVIHADSSLEVRGPTGYDGFDVDLRAVGELTPSVAALAALASPGSVSRLSGIAHLRGHETDRLAALSTEINRLGGTCRETPDGLVITATPLRPGIWRAYADHRMAMAGAIIGLRVAGVEVDDIAATTKTLPEFPRLWAEMVGPGQGWGYPQPRSGQRARRATGQGSGGKLAAALEHHHHH,soluble
4,MKVALYAGTYVKDKDGAVRSIYQLVSSMIKNGHQVVVWTPDFTPEANASVPVNLTPSVPIPLYPDYKLGFYNAVTERQLDEFAPDIVHISTPDIVGRKFLHYAKRKGLPVGSAYHTDFPSYLSYYRLGFAEPAVWRFLRKFYNACDVTLAPNESVRERLTGKGIERVELWSRGIDKELFDPSRRSAKLRRAWDAEGRTVIIYAGRFVLYKDIEVVMSLYQRFADEGLGDRVRFVMIGSGPEEAQMRARMPEAVFTGYLTGTTLPEAYASGDLFLFPSTTEAFCNVTLEALATGLPAVVSDVGGCQELVERSGGGFVAKAGDVGDFYACCTKLMQDGELFRSMRERGLAFAKDKSWAAVNGKLIDRYLELIAAKARRLEHHHHHH,not soluble
